Laboratory results taken from article PMC4872540, “Structural insight into antibody-mediated antagonism of the Glucagon-like peptide-1 Receptor” (Scientific Reports, 2016).

Target: human GLP-1R (human, UniProt P43220)
Assay: cell-based or functional assay

Chain of human GLP-1R (P43220 24-463): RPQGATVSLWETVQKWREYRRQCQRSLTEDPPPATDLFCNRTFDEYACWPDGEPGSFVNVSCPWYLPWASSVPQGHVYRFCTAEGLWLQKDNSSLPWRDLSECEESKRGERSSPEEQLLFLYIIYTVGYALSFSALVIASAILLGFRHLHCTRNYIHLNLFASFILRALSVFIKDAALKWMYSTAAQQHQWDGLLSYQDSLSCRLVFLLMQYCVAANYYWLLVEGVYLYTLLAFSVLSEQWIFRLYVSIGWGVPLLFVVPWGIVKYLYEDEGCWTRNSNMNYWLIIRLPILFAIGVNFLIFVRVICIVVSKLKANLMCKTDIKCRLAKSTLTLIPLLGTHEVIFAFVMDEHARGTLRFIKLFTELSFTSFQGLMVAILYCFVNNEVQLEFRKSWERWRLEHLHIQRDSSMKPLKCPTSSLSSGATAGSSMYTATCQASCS

B1: mAb 3F52 (antibody, V domains shown)
VH: DVQLQESGPGLVKPSQSLSLTCTVTGYSITSTYDWHWIRHFPGNILEWMGYISYSGSTNYNPSLKSRISITHDTSKNRFFLKLNSVTSEDTATYYCARATASFYDGSYYFDYWGQGTTLTVSS
VL: DIQMTQTTSSLSASLGDRVTISCRASQDISNYLNWYQQKPDGTVKLLIYYTSRLHSGVPSRFSGSGSGTDYSLTISSLEQEDVATYFCQQGNTLPFTFGSGTKLEIK
Question: How did the “IC50 of inhibition of GLP-1-mediated cAMP accumulation (Flashplate assay, BHK cells over-expressing human GLP-1R); blocks GLP-1 with GLP-1R” value turn out when B1 was run?
Answer: ~10 nM
